The source of these data is patent US20140370037A1 (published 2014).

The term Kd denotes the free concentration of one partner at which half of the binding sites on the other are occupied at equilibrium, for simple one-to-one binding.

For experiment [1], the target named is T1, human DLL3 antigen (human, UniProt Q9NYJ7 27-492).
T1 chain: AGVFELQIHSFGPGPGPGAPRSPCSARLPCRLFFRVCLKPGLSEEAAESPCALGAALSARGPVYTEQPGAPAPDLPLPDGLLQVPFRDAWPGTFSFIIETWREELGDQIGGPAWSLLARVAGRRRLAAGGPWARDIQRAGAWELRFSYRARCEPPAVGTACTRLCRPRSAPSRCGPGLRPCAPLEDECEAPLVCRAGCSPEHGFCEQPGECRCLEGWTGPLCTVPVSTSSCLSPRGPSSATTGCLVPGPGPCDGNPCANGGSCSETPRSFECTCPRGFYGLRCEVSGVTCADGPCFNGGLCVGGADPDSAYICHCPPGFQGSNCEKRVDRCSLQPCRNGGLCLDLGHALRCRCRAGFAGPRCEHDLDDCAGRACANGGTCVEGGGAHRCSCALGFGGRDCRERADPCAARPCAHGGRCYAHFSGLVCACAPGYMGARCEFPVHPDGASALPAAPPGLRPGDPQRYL
Nature of the experiment: ForteBio. (In general: BLI is a label-free optical method that tracks binding on a fibre tip over time.)

For experiment [2], the target named is T1, human DLL3 antigen. Nature of the experiment: ForteBio.
In experiment [3] the target is T1, human DLL3 antigen. Nature of the experiment: SPR. For orientation: Surface plasmon resonance follows binding to a sensor surface in real time, without labels.
Experiment [4] has as its target T1, human DLL3 antigen. Nature of the experiment: Biacore SPR.

B1: SC16.4 (antibody, V domains shown)
VH: QIQLVQSGPELKKPGETVKISCKASGYTFTDYSMHWVKQAPGKGLKWMGWINTETGEPGYADDFKGRFAFSLETSASTAYLQINNLKNEDTATYFCARYDGYAMDYWGQGTSVTVSS
VL: DIQMTQTTSSLSASLGDRVTISCRASQDISNYLNWYQQKPDGTVKLLIYYTSRLHSGVPSRFSGSGSGTDYSLTISNLELEDIATYFCQQGDMLPWTFGGGTKLEIK
B1 returned a Kd in experiment [1] of 0.5 nM.

B2: SC16.39 (antibody, V domains shown)
VH: EVKLEESGGGLVQFGGSMKLSCAASGFTFSDAWMDWVRQSPEKGLEWVAEIRNKANNHATYYPESVKGRFTISRDDSKSRVYLQMNNLRAEDTGIYYCTGYSSFAYWGQGTLVTVSA
VL: DIQMTQTTSSLSASLGDRVTISCRASQDVINYLNWYQQKPDGTVKLLIYYTSRLHSGVPSRFSGSGSRTDYSLTISNLEPEDIATYYCQQYSERPYTFGGGTKLEIK
As for B2, the Kd in experiment [2] came to 1 nM.

B3: hSC16.34 (antibody, V domains shown)
VH: QVQLVQSGAEVKKPGASVKVSCKASGYTFTNYGMNWVRQAPGQRLEWMGWINTYTGDPTYADDFKGRVTITRDTSASTAYMELSSLRSEDTAVYYCARIGGNSPSDYWGQGTTVTVSS
VL: DIQMTQSPSSLSASVGDRVTITCKASQSVSNDVAWYQQKPGKVPKLLIYYASNRYSGVPSRFSGSGSGTDFTLTISSLQPEDVATYFCQQDYSSPWTFGGGTKVEIK
For the molecule B3, in experiment [3], binding was put at a Kd of 0.9 nM.

B4: hSC16.56 (antibody, V domains shown)
VH: QVQLVQSGAEVKKPGASVKVSCKASGYTFTNYGMNWVRQAPGQGLEWMGWINTYTGEPTYADDFKGRVTMTTDTSTSTAYMELRSLRSDDTAVYYCARIGDSSPSDYWGQGTLVTVSS
VL: EIVMTQSPATLSVSPGERATLSCKASQSVSNDVVWYQQKPGQAPRLLIYYASNRYTGIPARFSGSGSGTEFTLTISSLQSEDFAVYYCQQDYTSPWTFGQGTKLEIKR
For the molecule B4, the dissociation constant (Kd) in experiment [3] was 0.5 nM.

B5: SC16.34 (antibody, V domains shown)
VH: QIQLVQSGPELKRPGETVKISCKASGYTFTNYGMNWVKQAPGKGLKWMGWINTYTGDPTYADDFKGRFAFSLETSASTAYLQINNLKNEDTATYFCARIGGNSPSDYWGQGTSLTVSS
VL: SIVMTQTPKFLLVSAGDRVTITCKASQSVSNDVAWYQQKPGQSPKLLIYYASNRYSGVPDRFTGSGYGTDFTFTISTVQAEDLAVYFCQQDYSSPWTFGGGTKLEIK
On to B5, for which the Kd in experiment [4] stood at 0.2 nM; in experiment [3], 0.6 nM.

B6: SC16.56 (antibody, V domains shown)
VH: QIQLVQSGPELKKPGETVKISCKASGYTFTNYGMNWVKQAPGKGLKWMAWINTYTGEPTYADDFKGRFAFSLETSASTASLQIINLKNEDTATYFCARIGDSSPSDYWGQGTTLTVSS
VL: SIVMTQTPKFLLVSAGDRVTITCKASQSVSNDVVWYQQKPGQSPKLLIYYASNRYTGVPDRFAGSGYGTDFSFTISTVQAEDLAVYFCQQDYTSPWTFGGGTKLEIR
For the molecule B6, the values for the equilibrium dissociation constant (Kd) in experiment [4] and in experiment [3] were 1 nM and 0.5 nM, respectively.

B7: SC16.15 (antibody, V domains shown)
VH: QVQLQQSGAELAKPGASVKMSCKASGYTFTRYWIHWIKQRPGQGLEWIGYINPTTVYTEFNQNFKDKATLTADKSSTTASMQLSSLTSEDSAVYYCARGGSNFFDYWGQGTTLTVSS
VL: DIQMTQSPASLAASVGETVAITCRASENIYYNLAWYQQKQGKSPQLLIYTANSLEDGVPSRFSGSGSGTQYSLKINSMQPEDSATYFCKQAYDVPPTFGGGTKLEIK
Consider B7, for which, in experiment [4], binding was put at a Kd of 0.5 nM.

B8: hSC16.13 (antibody, V domains shown)
VH: QITLKESGPTLVKPTQTLTLTCTFSGFSLSTSGMGVGWIRQPPGKALEWLAHIWWDDVKRYSPSLKSRLTITKDTSKNQVVLTMTNMDPVDTATYYCARIVSFDNDVVSAMDYWGQGTLVTVSS
VL: DIQMTQSPSSLSASVGDRVTITCSASSSVSYMYWYQQKPGKAPKLLIYLTSNLASGVPSRFSGSGSGTDFTLTISSLQPEDFATYYCQQWRSNPFTFGQGTKLEIKR
In turn, B8 came in with a Kd in experiment [3] of 0.5 nM.

B9: SC16.67 (antibody, V domains shown)
VH: EVQLVETGGGLVQPKGSLKLSCAVSAFTFTTYAMNWVRQAPGKGLEWVARIRNKSNNYATYYADSVKDRFTISRDDSQSMLYLQMNNLKIEDTAMYYCVFYYDYVYWGQGTLVTVSA
VL: QAVVTQESALTTSPGETVTLTCRSSTGAVTTSNYANWIQEKPDHLFTGLIGGTNNRAPGVPARFSGSLIGDKAALTITGAQTEDEAIYFCGLWYSNHLVFGGGTKLTVL
For B9, in experiment [1], binding was put at a Kd of 0.5 nM.

B10: hSC16.25 (antibody, V domains shown)
VL: EIVLTQSPDFQSVTPKEKVTITCSASSSVSYMHWYQQKPDQSPKLLIKDSSKLASGVPSRFSGSGSGTDFTLTINSLEAEDAATYYCQQWSSNPLTFGQGTKLEIK
V domain: QITLKESGPTLVKPTQTLTLTCTFSGFSLSTSGMGVGWIRQPPGKALEWLTDIWWDDNKYYNPSLKSRLTITKDTSKNQVVLTMTNMDPVDTATYYCARRVNYYYDPYYAMDYWGQGTTLVTVS
For the molecule B10, the Kd in experiment [3] was under 0.2 nM.

B11: SC16.25 (antibody, V domains shown)
VH: QVTLKESGPGILQPSQTLSLTCSFSGFSLSTSGMGVGWIRQPSGEGLEWLTDIWWDDNKYYNPSLKSRLTISKDTSSNQVFLNITSVDTADTATYYCARRVNYYYDPYYAMDYWGQGTSVTVSS
VL: QIVLTQSPAIMSASPGEKVTMTCSASSSVSYMHWYQQKSGTSPKRWIYDSSKLASGVPARFSGSGSGTSYSLTISSMEAEDAATYYCQQWSSNPLTFGAGTKLELK
For B11, the values for the Kd in experiment [4] and in experiment [3] were 0.2 nM and under 0.2 nM, respectively.

B12: SC16.10 (antibody, V domains shown)
VH: QVTLKESGPGILQSSQTLSLTCSFSGFSLSTSGMGVGWIRQPSGKGLEWLAHIWWDDVKRYNPVLKSRLTISKDTSSSQVFLKIASVDTADTATYYCARLVDDLYYFDYWGQGTTLTVSS
VL: QIVLTQSPAIMSASLGERVTMTCTASSSVSSSYLHWYQQKPGSSPKLWIYSTSNLASGVPTRFSGSGSGTSYSLTISSMEAEDAATYYCHQYHRSPFTFGSGTKLEIK
Consider B12, for which binding in experiment [1] was put at a Kd of 4 nM.

B13: hSC16.15 (antibody, V domains shown)
VH: QVQLVQSGAEVKKPGASVKVSCKASGYTFTRYWIHWIRQAPGQGLEWMGYINPTTVYTEFNQNFKDRVTMTRDTSTSTVYMELSSLRSEDTAVYYCARGGSNFFDYWGQGTTVTVSS
VL: AIQLTQSPSSLSASVGDRVTITCRASENIYYNLAWYQQKPGKAPKLLIYTANSLEDGVPSRFSGSGSGTDFTLTISSLQPEDFATYFCKQAYDVPPTFGGGTKLEIK
Regarding B13, the Kd in experiment [3] was determined as 0.2 nM.

B14: SC16.13 (antibody, V domains shown)
VH: QVTLKESGPGILQPSQTLSLTCSFSGFSLSTSGMGVGWIRQPSGKGLEWLAHIWWDDVKRYNPALKSRLTISKDTSSSQVFLKIASVDTADTATYYCARIVSFDNDVVSAMDYWGQGTSVTVSS
VL: QIVLTQSPALVSASPGEKVTMTCSASSSVSYMYWYQQKPRSSPKPWIYLTSNLASGVPARFSGSGSGTSYSLTISSMEAEDAATYYCQQWRSNPFTFGSGTKLEIK
Regarding B14, the Kd in experiment [4] is 2 nM; in experiment [3], 0.3 nM.

B15: SC16.65 (antibody, V domains shown)
VH: QVTLKESGPGILQPSQTLSLTCSFSGFSLSTSGMGVGWIRQPSGKGLEWLALIWWDDVKRYNPALKSRLTISKDASSSQVFLKIASVDTADTATYYCARIASYDYDVVYAMDYWGQGTSVSVSS
VL: QIVLTQSPALMSASPGEKVTMTCSVTSSVSYMYWYQQKPRSSPKPWIYLTSNLASGVPARFSGSGSGTSYSLTISSVEAEDAATYYCQQWRNNPFTFGSGTKVEIK
As to B15, in experiment [4], the equilibrium dissociation constant (Kd) was determined as 0.9 nM.

B16: SC16.8 (antibody, V domains shown)
VH: QAQLQQSGAELVRPGTSVKVSCKASGYAFTNYLIEWVKQRPGQGLEWIGVINPGTGGTNYNENFKGKATLTADKSSSTAYMQLSSLTSDDSAVYFCARSPYDYHEGAMDYWGQGTSVTVSS
VL: EIQMTQSPSSMSASLGDRITITCQATQDIVKNLNWYQQKPGKPPSFLIYYAIELAEGVPSRFSGSGSGSDYSLTISNLESEDFADYYCLQFYEFPFTFGAGTKLELK
Molecule B16 came in with a Kd in experiment [1] of 0.5 nM.
